# According to article PMC9672333 (2022):
# Molecular target: Wild type spike RBD (UniProt P0DTC2) (SARS-CoV-2, UniProt P0DTC2 319-541)
row,Binder,Kd [nM]
1,"Tixagevimab Biosimilar (antibody, V domains shown) VH: QMQLVQSGPEVKKPGTSVKVSCKASGFTFMSSAVQWVRQARGQRLEWIGWIVIGSGNTNYAQKFQERVTITRDMSTSTAYMELSSLRSEDTAVYYCAAPYCSSISCNDGFDIWGQGTMVTVSS VL: not shown",0.6
2,"Imdevimab (antibody, V domains shown) VH: QVQLVESGGGVVQPGRSLRLSCAASGFTFSNYAMYWVRQAPGKGLEWVAVISYDGSNKYYADSVKGRFTISRDNSKNTLYLQMNSLRTEDTAVYYCASGSDYGDYLLVYWGQGTLVTVSS VL: QSALTQPASVSGSPGQSITISCTGTSSDVGGYNYVSWYQQHPGKAPKLMIYDVSKRPSGVSNRFSGSKSGNTASLTISGLQSEDEADYYCNSLTSISTWVFGGGTKLTVL",65
3,"Casirivimab (antibody, V domains shown) VH: QVQLVESGGGLVKPGGSLRLSCAASGFTFSDYYMSWIRQAPGKGLEWVSYITYSGSTIYYADSVKGRFTISRDNAKSSLYLQMNSLRAEDTAVYYCARDRGTTMVPFDYWGQGTLVTVSS VL: DIQMTQSPSSLSASVGDRVTITCQASQDITNYLNWYQQKPGKAPKLLIYAASNLETGVPSRFSGSGSGTDFTFTISGLQPEDIATYYCQQYDNLPLTFGGGTKVEIK",0.8
